The results in this text go back to article PMC4247251.

This assay concerns the target PhTX-II PLA2 (Porthidium hyoprora).

For the substance “crotapotin F2 from Crotalus durissus collilineatus (natural protein)”, the inhibition of the PLA2 enzymatic activity of PhTX-II (substrate 4-nitro-3-(octanoyloxy) benzoic acid) after incubating the two proteins 1:1 w/w for 30 min at 37 °C amounted to 60%.
In turn, “crotapotin F3 from Crotalus durissus collilineatus (natural protein)” registered an inhibition of the PLA2 enzymatic activity of PhTX-II (substrate 4-nitro-3-(octanoyloxy) benzoic acid) after incubating the two proteins 1:1 w/w for 30 min at 37 °C of 60%.
